According to patent US20120230999A1 (ARIZONA BOARD OF REGENTS A BODY CORPORATE OF THE STATE OF …, published 2012):
The star is where a group is joined. DABCYL = CN(C)c1ccc(/N=N/c2ccc(C(=O)*)cc2)cc1; EDANS = O=S(=O)(O)c1cccc2c(NCCN*)cccc12

How the values were obtained:
[1] = molecular target: T1, internally quenched fluorogenic α-secretase substrate … (SMILES …); assay: cell-based or functional assay
T1 peptide: Ac-RE(EDANS)VHHQKLVFK(DABCYL)R-OH

[2] = molecular target: T1, internally quenched fluorogenic …; assay: cell-based or functional assay

kcat (per min), hydrolysis of α-secretase Aβ fluorogenic substrate [1] [per min] | kcat/Km (µM/min), hydrolysis of α-secretase Aβ fluorogenic substrate [1] [µM/min] | specificity constant (kcat/KM) relative to parent ASec-1 scFv [2] [fold] | Binder
61 | 40.4 | 2.8 | ASec-1B scFv (scFv) scFv: DVLMETTQTPLTLSVTIGQPASISCKSSQSLLHTDGKTYLIWLLQRPGQSPKRLIYLVSKLDSGVPDRFTGSGSGTDFTLKISRVEAEDLGVYYCWQGTHFPQTFGGGTKLEIKRADAAPGGGGSGGGGSGGGGSGSESGGGLVKPGGSLKLSCAASGFAFSIYGMETSWFRQTPEKRLEWVATISGGDTYTYYPDSVKGRFTISRDNAKNNLFLQMETSSLRSEDTPLYFCGRSQKLHPWGQGLVTVSA
34.8 | 58.1 | 5.6 | ASec-1A scFv (scFv) scFv: DVLMETTQTPLTLSVTIGQPASISCKSSQSLLHTDGKTYLIWLLQRPGQSPKRLIYLVSKLDSGVPDRFTGSGSGTDFTLKISRVEAEDLGVYYCWQGTHFPQTFGGGTKLEIKRADAAPGGGGSGGGGSGGGGSGSESGGGLVKPGGSLKLSCAASGFTFSIYGMETFWFRQTPEKRLEWVATISGGDTYTYYPDSVKGRFTISRDNAKNNLFLQMETSSLRSEDTPLYFCGRNHQITMETWGQGTLVTVSA
